Assay results reported in patent US20100247589A1.
Where no end group is shown, it is not given here. The star is where a group is joined. Biotin = O=C1N[C@H]2[C@H](CS[C@H]2CCCCC(=O)*)N1

Assays:
[1] = target: tooth pellicle (thin film derived from salivary glycoproteins, formed in a human mouth) (human); assay: phage ELISA on 30 min pellicle-coated bovine enamel, anti-M13-HRP, normalized to DenP3; no-phage control 0.094
[2] = target: tooth pellicle (thin film derived from salivary glycoproteins, formed in a human mouth) (human); assay: ELISA, 20 uM biotinylated peptide on pellicle-coated bovine enamel, streptavidin-HRP, normalized to DenP03; no-peptide control -0.001
[3] = target: tooth pellicle (thin film derived from salivary glycoproteins, formed in a human mouth) (human); assay: phage ELISA on pellicle-coated bovine enamel, anti-M13-HRP, normalized to internal control
[4] = target: tooth pellicle (thin film derived from salivary glycoproteins, formed in a human mouth) (human); assay: ELISA titration of biotinylated peptide on pellicle-coated bovine enamel, streptavidin-alkaline phosphatase, 4-MUP fluorescence, Scatchard plot

Row | Binder | O.D.450 (normalized) [1] | other results
1 | QFNQTSHSFMHGTSGYVPGK [DenP105] | 0.47 | 
2 | FPSKWYNHHRHITGHV [DenP112] | 0.413 | 
3 | NLHSPWPSHAAHHWST [DenP118] | 0.641 | 
4 | AIEYQHSATTPWTMRTRLPP [DenP101] | 0.467 | 
5 | GVHQYSRPTVPSYLWTSGQH [DenP103] | 0.879 | 
6 | GINKGQRPPWESWHEN [DenP114] | 0.703 | 
7 | SSRPQVPDYLSPTHQKKAFLEIPTK(Biotin) [DenP29-A] |  | O.D.450 (normalized) [2]: 0.468
8 | SMWHDITKRYRNPSEMVSAY [DenP107] | 0.726 | 
9 | MPGHQESIKVQNWNRV [DenP117] | 0.433 | 
10 | DGYKLQTSLDWQMWNP [DenP111] | 1.05 | 
11 | HDHLSWWGQFDRQNLL [DenP116] | 1.05 | 
12 | GGMGALESYRQWNHLA [DenP113] | 1.35 | 
13 | WHEPHQFSGENTDYSSSMGT [DenP109] | 0.716 | 
14 | TTYHYKNIYQESYQQRNPAV [DenP3] | 1 | O.D.450 (normalized) [3]: 2.5
15 | SSRPTTYHYKNIYQESYQQRNPAVK(Biotin) [DenP3-A] |  | O.D.450 (normalized) [2]: 1; MB50 [4]: 28 µM
16 | SSRPHKNENIMQYNVNDRWHITPAK(Biotin) [DenP32-A] |  | O.D.450 (normalized) [2]: 1.14; MB50 [4]: 25 µM
17 | SSRPAPPTYQTASYPHNLPSKRKMK(Biotin) [DenP28-A] |  | O.D.450 (normalized) [2]: 0.811
18 | NQQMKLVPQHWHRAQP [DenP119] | 1.05 | 
19 | SFSWHRGDWELGHQSKTMGM [DenP106] | 1.52 | 
20 | GYGQYVSQQTWAHSNK [DenP115] | 0.501 | 
21 | GYQPHYVDHTIGWQPMIRPN [DenP104] | 0.79 | 
22 | THGNKHQSWTYPSEINHKNY [DenP108] | 1.15 | 
23 | EFYPFAEVPPEKSGIGRQVF [DenP102] | 0.52 | 
